Results as given in patent US20140235701, “NGF APTAMER AND APPLICATION THEREOF” (RIBOMIC INC., published 2014).
Positions count from the first letter of the chain named.

Tests used:
Conditions in all cases: tags: R&D Systems; chain copies: 2
[1] = molecular target: T1, NGF (nerve growth factor) (Homo sapiens, UniProt P01138 P01138:122-241); assay: SPR; more than 40N control
Experimental: As the measuring apparatus, BIAcore2000 manufactured by BIAcore was used and, as the sensor chip, CM5 that reacts with an amino group was used. […] For the reaction of an amino group on the protein side and a carboxyl group on the chip side, ethyl-3-carbodiimide hydrochloride and N-hydroxysuccinimide were used. After the reaction, blocking by ethanolamine-HCl was performed. The immobilized amount of NGF was set to 3,000-4,000 RU. An aptamer for analyte was prepared to 0.15 μM-0.5 μM. As a running buffer, solution A was used. Here, solution A is a mixed solution of 145 mM sodium chloride, 5.4 mM potassium chloride, 1.8 mM calcium chloride, 0.8 mM magnesium chloride, 20 mM Tris (pH 7.6), 0.05% Tween 20. As a regeneration solution, a mixed solution of 1M NaCl and 50 mM NaOH was used. NGF was immobilized on FC2, and the results of FC1 were subtracted to give a final sensorgram.
The measurement was as shown in Examples 1 and 2 and the surface plasmon resonance method was used.

[2] = molecular target: T1, NGF (nerve growth factor); assay: SPR; more than 40N control; remark: listed apart in the source
NT-4 (neurotrophin-4) = molecular target: T2, NT-4 (neurotrophin-4) (Homo sapiens, UniProt P34130 P34130:81-210); assay: cell_activity; TF-1
T2 sequence: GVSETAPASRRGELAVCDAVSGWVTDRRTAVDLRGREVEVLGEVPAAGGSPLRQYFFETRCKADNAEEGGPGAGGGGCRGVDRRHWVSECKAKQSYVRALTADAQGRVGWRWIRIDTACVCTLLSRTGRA
Text: Using TF-1 cells, whether NGF aptamer inhibits BDNF, NT-3, NT-4 was examined. Human receptor genes (TrkB, TrkC, p75) for respective neurotrophic factors were introduced into TF-1 cells (ATCC Number: CRL-2003), which is a human erythroleukemic cell line, by using a retrovirus vector to give cells that highly express these receptors stably. TF-1 cells introduced with TrkB and p75 were used for the evaluation of inhibitory activity against BDNF, TF-1 cells introduced with TrkC and p75 were used for the evaluation against NT-3, and TF-1 cells introduced with TrkB alone were used for the evaluation against NT-4. These cells were suspended in an RPMI-1640 medium containing 20% fetal bovine serum, and seeded in a white 96 well flat-bottom plate at 1000 cells (50 μL) per well. Thereto was added a mixed solution 50 μL of human BDNF (final concentration 0.074 nM) or NT-3 (final concentration 0.074 nM) or NT-4 (final concentration 0.071 nM) and the aptamer (final concentration 1 μM-0.01 nM), which had been pre-reacted at room temperature for 30 min in a serum-free RPMI-1640 medium, 3 days later, 100 μL of CellTiter-Glo reagent for CellTiter-Glo Luminescent Cell Viability Assay (manufactured by Promega) was added to each well, chemiluminescence was measured by a microplate reader. With the amount of luminescence per well obtained by the addition of BDNF or NT-3 or NT-4 alone and culture of the cells for 3 days as inhibitory activity 0%, and that of the well obtained by culture for 3 days without addition of BDNF or NT-3 or NT-4 as inhibitory activity 100%, the inhibitory activity of the aptamer was calculated from the amount of luminescence per well obtained by culturing with the addition of BDNF or NT-3 or NT-4 and the aptamer in mixture. When the inhibitory activity was 0 or below, ‘0%’ is indicated. The 50% inhibitory concentration (IC₅₀) was determined from the concentrations at two, above and below points sandwiching the 50% inhibitory activity. An IC₅₀ value indicated as “>X” means that the inhibitory activity was not more than 50% when the indicated concentration X was the maximum measured concentration. N.D. means not measured.

[3] = molecular target: T1, NGF (nerve growth factor); assay: cell_activity; neurite; TF-1 >1

T1 sequence (P01138 122-241, one chain of several): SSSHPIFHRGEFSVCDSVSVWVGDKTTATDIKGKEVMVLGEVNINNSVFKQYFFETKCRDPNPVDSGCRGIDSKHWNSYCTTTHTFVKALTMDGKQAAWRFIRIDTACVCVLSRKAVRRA

B1: SEQ ID NO: 23 (ssRNA)
RNA: GGGAGAACUUCGACCAGAAGUGGCACAUCCUGCUGCGUAGUUUCCGUCUGCGUGGCUGUUAUGUGCGCAUACAUGGAUCCUC
modifications: 2'-F C/U, dA, 2'-OH G
binding result [1]: binds

B2: SEQ ID NO: 26 (ssRNA)
RNA: B1 RNA with G50U, U53C
modifications: 2'-F C/U, dA, 2'-OH G
binding result [1]: binds

B3: SEQ ID NO: 56 (ssRNA)
RNA: B1 RNA with G22U, C36U, G52A, C56U
modifications: 2'-F C/U, dA, 2'-OH G
binding result [2]: binds

B4: SEQ ID NO: 22 (ssRNA)
RNA: GGGAGAACUUCGACCAGAAGUUGGCACAUCCUGCUGCGUAGUUUCCGUCUUCGUGGCUGUUAUGUGCGCAUACAUGGAUCCUC
modifications: 2'-F C/U, dA, 2'-OH G
binding result [1]: binds

B5: SEQ ID NO: 35 (ssRNA)
RNA: B4 RNA with C34U, G47U, U51A
modifications: 2'-F C/U, dA, 2'-OH G
binding result [1]: binds

B6: SEQ ID NO: 54 (ssRNA)
RNA: B4 RNA with C34A, U51G, G56U
modifications: 2'-F C/U, dA, 2'-OH G
binding result [2]: binds

B7: SEQ ID NO: 52 (ssRNA)
RNA: B4 RNA with G38A, C52U
modifications: 2'-F C/U, dA, 2'-OH G
binding result [2]: binds

B8: SEQ ID NO: 51 (ssRNA)
RNA: B4 RNA with U29C, G36A, U39G, U51C, C52G
modifications: 2'-F C/U, dA, 2'-OH G
binding result [2]: binds

B9: SEQ ID NO: 55 (ssRNA)
RNA: B4 RNA with C34U, U51G
modifications: 2'-F C/U, dA, 2'-OH G
binding result [2]: binds

B10: SEQ ID NO: 49 (ssRNA)
RNA: B4 RNA with G23U, U51A
modifications: 2'-F C/U, dA, 2'-OH G
binding result [2]: binds

B11: SEQ ID NO: 31 (ssRNA)
RNA: B4 RNA with U39C, G47C, U51G
modifications: 2'-F C/U, dA, 2'-OH G
binding result [1]: binds

B12: SEQ ID NO: 33 (ssRNA)
RNA: B4 RNA with U35C, C46A, G47A, C52G, U58G, G59U, U60G
modifications: 2'-F C/U, dA, 2'-OH G
binding result [1]: binds

B13: SEQ ID NO: 27 (ssRNA)
RNA: B4 RNA with U39C, U51G
modifications: 2'-F C/U, dA, 2'-OH G
binding result [1]: binds

B14: SEQ ID NO: 28 (ssRNA)
RNA: B4 RNA with G47A, U51G
modifications: 2'-F C/U, dA, 2'-OH G
binding result [1]: binds

B15: SEQ ID NO: 59 (ssRNA)
RNA: B4 RNA with G23U, G47U, U51G, C57U
modifications: 2'-F C/U, dA, 2'-OH G
binding result [2]: binds

B16: SEQ ID NO: 32 (ssRNA)
RNA: B4 RNA with U39G, G47U
modifications: 2'-F C/U, dA, 2'-OH G
binding result [1]: binds

B17: SEQ ID NO: 34 (ssRNA)
RNA: B4 RNA with U35C, U51G
modifications: 2'-F C/U, dA, 2'-OH G
binding result [1]: binds

B18: SEQ ID NO: 61 (ssRNA)
RNA: B4 RNA with G23A, U54C, C57U
modifications: 2'-F C/U, dA, 2'-OH G
binding result [2]: binds

B19: SEQ ID NO: 57 (ssRNA)
RNA: B4 RNA with U22A, A28G, G38A, U51G, C52U
modifications: 2'-F C/U, dA, 2'-OH G
binding result [2]: binds

B20: SEQ ID NO: 60 (ssRNA)
RNA: B4 RNA with G38A, U39G, U51C, C52G
modifications: 2'-F C/U, dA, 2'-OH G
binding result [2]: binds

B21: SEQ ID NO: 58 (ssRNA)
RNA: B4 RNA with G24A, U51G, C57U
modifications: 2'-F C/U, dA, 2'-OH G
binding result [2]: binds

B22: SEQ ID NO: 53 (ssRNA)
RNA: B4 RNA with G23U, U39C, U51A
modifications: 2'-F C/U, dA, 2'-OH G
binding result [2]: binds

B23: SEQ ID NO: 37 (ssRNA)
RNA: B4 RNA with G36A, G47U
modifications: 2'-F C/U, dA, 2'-OH G
binding result [1]: binds

B24: SEQ ID NO: 50 (ssRNA)
RNA: B4 RNA with U21C, C34U, U51A, G56A
modifications: 2'-F C/U, dA, 2'-OH G
binding result [2]: binds

B25: SEQ ID NO: 48 (ssRNA)
RNA: B4 RNA with U39G, U51C, C52G
modifications: 2'-F C/U, dA, 2'-OH G
binding result [2]: binds

B26: SEQ ID NO: 25 (ssRNA)
RNA: B4 RNA with U39C, U51A
modifications: 2'-F C/U, dA, 2'-OH G
binding result [1]: binds

B27: SEQ ID NO: 24 (ssRNA)
RNA: B4 RNA with U39A, U51C
modifications: 2'-F C/U, dA, 2'-OH G
binding result [1]: binds

GGGUCCUGGAUAAGAGUUUCCGUCUCGUAUCCUGUUACCC (ssRNA, as 82(25) except 5' PEG80TS4 instead of idT) [SEQ ID NO: 82(55)]
IC50 (NT-4 (neurotrophin-4)): 14.3 nM

GGGUCCUGGAUAAGAGUUUCCGUCUCGUAUCCUGUUACCC (ssRNA, 2'-OMe G (G8,G34 2'-OH), dA, 2'-F C/U; 5',3' idT) [SEQ ID NO: 82(1)]
IC50 (NT-4 (neurotrophin-4)): < 100 nM

GGGUCCUGACGUAUAGUUUCCGUCUGUAUGUCUGUUACCC (ssRNA, 2'-F C/U, dA, 2'-OH G) [SEQ ID NO: 101]
IC50 [3]: 0.994 nM

GGGUCCUGUGGAAGAGUUUCCGUCUCGUCCACUGUUACCC (ssRNA, 2'-F C/U, dA, 2'-OH G) [SEQ ID NO: 89]
IC50 [3]: 0.959 nM

GGGUCCUGAGCAAGAGUUUCCGUCUCAUGCUCUGUUACCC (ssRNA, 2'-F C/U, dA, 2'-OH G) [SEQ ID NO: 102]
IC50 [3]: 0.908 nM

B28: SEQ ID NO: 36 (ssRNA)
RNA: GGGAGAACUUCGACCAGAAGGUACGUUAGUACGUUUGCAUAUGUACAACCUUGCAUACGAUACGUAGGUUAUGUGCGCAUACAUGGAUCCUC
modifications: 2'-F C/U, dA, 2'-OH G
binding result [1]: binds

B29: SEQ ID NO: 29 (ssRNA)
RNA: GGGAGAACUUCGACCAGAAGUUCACAUCCUGCUGCGAAGUUUCCUUCUUCGUGGCUGUUAUGUGCGCAUACAUGGAUCCUC
modifications: 2'-F C/U, dA, 2'-OH G
binding result [1]: binds

B30: SEQ ID NO: 30 (ssRNA)
RNA: GGGAGAACUUCGACCAGAAGUUGGCACAUCCUGCUGCGAAGGUUCCGUCUUCGUGGCUGUACUAUGUGCGCAUACAUGGAUCCUC
modifications: 2'-F C/U, dA, 2'-OH G
binding result [1]: binds
